Assay results: publication PMC9605988, “Juxtaposition of Bub1 and Cdc20 on phosphorylated Mad1 during catalytic mitotic checkpoint complex assembly” (Nature Communications, 2022)
Square brackets hold non-standard residues; d marks the D form. Peptide text beside a SMILES is read from it. * marks the point of attachment. X1 = N=c1ccc2c(-c3ccc(C(=O)NCCCCCN4C(=O)CC(*)C4=O)cc3C(=O)O)c3ccc(N)c(S(=O)(=O)O)c3oc-2c1S(=O)(=O)O; pT = C[C@@H](OP(=O)(O)O)[C@H](N)C(=O)O; pS = N[C@@H](COP(=O)(O)O)C(=O)O

Legend:
[1] = target: T1, pMad1CTD:Cdc20N complex (Homo sapiens, UniProt Q12834+Q9Y6D9); test: Fluorescence anisotropy: AF488-Bub1CD1 binding to preformed pMad1CTD:Cdc20N complex; conditions: KD 1.7 vs 0.9 µM for pMad1CTD alone
T1 construct: the C-terminal domain of Mad1 (residue 597–718); made in house; host or cells: Cdc20N: E. coli Rosetta 2 (DE3)
Protocol: All reactions were completed in a buffer of 25 mM HEPES pH 7.75, 1 mM TCEP, 100 mM NaCl, 0.05% (v/v) Tween-20. […] Measurements were performed with a PheraStar plate reader FSX plate reader (BMG Labtech) using an optic module for λex = 485 nm, λem = 520 nm. Reactions were carried out in a total volume of 40 μl at 25 °C in a black, flat-bottom, non-binding surface 384-well plate (Corning). All experiments were performed as technical triplicates and data were analysed in PRISM 9.3.1 (GraphPad Software).

[2] = target: Mad1 CTD (Homo sapiens) (UniProt Q9Y6D9); conditions: cited from earlier work
[3] = tested on: Mad1CTD R617E/K619D mutant; test: SEC-MALS, Cdc20N with Mad1CTD R617E/K619D; assay type: binding, human; conditions: 1:1.2 ratio Mad1CTD dimer to Cdc20N
Protocol: (§1) Size-exclusion chromatography coupled with multi-angle static light scattering (SEC-MALS), was performed using an Agilent 1200 series LC system with an online Dawn Helios ii system (Wyatt) equipped with a QELS + module (Wyatt) and an Optilab rEX differential refractive index detector (Wyatt). About 100 μl purified protein at ~3.0 mg/ml was auto-injected onto Superdex 75 or a Superdex 200 Increase 10/300 GL column (GE Healthcare) and run at 0.5 ml/min. The molecular masses were analysed with ASTRA 7.3.0.11 (Wyatt). Data were plotted using Prism 8.4.3 (GraphPad Software, Inc). Purified Cdc20^N and Cdc20^N mutants were incubated with Mad1^CTD wild-type or mutants at a 1:1.2 ratio of Mad1^CTD dimer to Cdc20^N.

[4] = tested on: AF488-Bub1CD1:pMad1CTD complex; test: Fluorescence anisotropy: Cdc20N titrated into preformed AF488-Bub1CD1:pMad1CTD complex; assay type: binding, human; conditions: at the concentrations used in the assay
[5] = tested on: pMad1CTD (Mad1CTD pT716); test: SEC-MALS, Cdc20N with pMad1CTD; assay type: binding, human; conditions: 1:1.2 ratio Mad1CTD dimer to Cdc20N
Protocol: as §1

T1 sequence (Q9Y6D9 597-718): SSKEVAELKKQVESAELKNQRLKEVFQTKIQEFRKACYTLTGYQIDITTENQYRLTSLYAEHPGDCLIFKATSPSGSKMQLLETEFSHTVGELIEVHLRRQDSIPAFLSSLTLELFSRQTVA
T1 sequence (Q12834 1-73 partner): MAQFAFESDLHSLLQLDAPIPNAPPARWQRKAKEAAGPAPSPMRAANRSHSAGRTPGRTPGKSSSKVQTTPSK

## CC[C@H](C)[C@H](NC(=O)[C@H](Cc1ccccc1)NC(=O)CNC(=O)[C@H](CC(C)C)NC(=O)[C@H](C)NC(=O)[C@H](CCC(=O)O)NC(=O)[C@H](CCCCN)NC(=O)[C@@H](NC(=O)[C@H](Cc1c[nH]cn1)NC(=O)[C@@H](NC(=O)[C@@H](NC(=O)[C@@H]1CCCN1C(=O)[C@H](COP(=O)(O)O)NC(=O)[C@@H]1CCCN1C(=O)[C@H](CCC(N)=O)NC(=O)[C@@H](NC(=O)[C@H](CCCCN)NC(=O)[C@H](Cc1c[nH]c2ccccc12)NC(=O)[C@@H](N)CSC1CC(=O)N(CCCCCNC(=O)c2ccc(-c3c4ccc(=N)c(S(=O)(=O)O)c-4oc4c(S(=O)(=O)O)c(N)ccc34)c(C(=O)O)c2)C1=O)C(C)C)[C@@H](C)OP(=O)(O)O)C(C)C)[C@@H](C)O)C(=O)N[C@@H](CCSC)C(=O)N[C@@H](CC(N)=O)C(=O)N[C@@H](CCSC)C(=O)N[C@@H](Cc1ccccc1)C(=O)N[C@@H](CCC(N)=O)C(=O)N[C@@H](C)C(=O)N1CCC[C@H]1C(=O)N[C@H](C(=O)N[C@@H](CO)C(=O)O)[C@@H](C)O (stereo partly drawn) [AF488-Bub1^CD1] (H-C(X1)WKVQP[pS]P[pT]VHTKEALGFIMNMFQAPTS-OH; N-terminus and C-terminus assumed)
[1]
  cooperativity of Bub1CD1 and Cdc20N binding to pMad1CTD: unlikely to be cooperative
[1]; listed as AF488-Bub1CD1
  cooperativity of Bub1CD1 and Cdc20N binding to pMad1CTD: no cooperativity

## Bub1 CD1 (from UniProt O43683)
[2]
  Kd: 2700 nM

B1: Cdc20^N E7R/D9K: Cdc20N E7R/D9K mutant (protein)
chain: MAQFAFRSKLHSLLQLDAPIPNAPPARWQRKAKEAAGPAPSPMRAANRSHSAGRTPGRTPGKSSSKVQTTPSK
modifications: left off: His6, N-terminal, state not stated | MBP, N-terminal, state not stated
notes: Cdc20N E7R/D9K mutant
[3]
  binding by SEC-MALS: did not show an interaction
[4]
  interaction with pMad1CTD by fluorescence anisotropy: could no longer be observed
[5]
  binding by SEC-MALS: could no longer be observed
